# Results published in US20230138315A1 (JIANGSU HENGRUI MEDICINE, published 2023).
# T1: rat ANGPTL3(17-455)-His (rat, biotin-labelled in the ELISA and HTRF assays (sites not given))
# T1 construct: also called full-length rat ANGPTL3
# T1 chain: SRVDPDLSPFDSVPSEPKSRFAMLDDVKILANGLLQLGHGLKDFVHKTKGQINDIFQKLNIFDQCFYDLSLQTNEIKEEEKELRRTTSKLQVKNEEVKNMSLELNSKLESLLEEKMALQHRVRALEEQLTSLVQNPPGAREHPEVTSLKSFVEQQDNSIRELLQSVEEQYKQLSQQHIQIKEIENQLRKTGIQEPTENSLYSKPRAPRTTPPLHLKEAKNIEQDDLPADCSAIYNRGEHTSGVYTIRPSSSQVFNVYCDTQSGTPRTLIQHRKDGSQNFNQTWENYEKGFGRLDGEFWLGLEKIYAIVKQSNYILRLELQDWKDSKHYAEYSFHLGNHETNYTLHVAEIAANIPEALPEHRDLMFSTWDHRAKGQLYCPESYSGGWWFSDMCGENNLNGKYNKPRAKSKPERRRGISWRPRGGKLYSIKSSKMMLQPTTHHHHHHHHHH
# T2: human-ANGPTL3(17-460)-His (human, UniProt Q9Y5C1 17-460, biotin-labelled (labelling kit, sites not stated))
# T2 construct: also called full-length human ANGPTL3
# T2 sequence: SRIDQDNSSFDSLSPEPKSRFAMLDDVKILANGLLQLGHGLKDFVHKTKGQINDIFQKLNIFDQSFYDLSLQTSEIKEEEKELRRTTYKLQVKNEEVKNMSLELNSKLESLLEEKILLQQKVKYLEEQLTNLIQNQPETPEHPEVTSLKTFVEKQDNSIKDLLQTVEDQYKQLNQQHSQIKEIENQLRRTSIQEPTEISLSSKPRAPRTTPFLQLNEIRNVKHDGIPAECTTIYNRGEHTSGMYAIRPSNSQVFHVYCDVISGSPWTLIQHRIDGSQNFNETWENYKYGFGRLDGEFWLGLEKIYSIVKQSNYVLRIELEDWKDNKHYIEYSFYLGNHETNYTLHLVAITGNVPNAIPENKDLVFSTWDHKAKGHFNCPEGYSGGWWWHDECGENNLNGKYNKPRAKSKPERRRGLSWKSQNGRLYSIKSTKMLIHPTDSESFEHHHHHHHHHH
# T3: mouse ANGPTL3(17-455)-His (mouse, UniProt Q9R182 17-455, biotin-labelled in the ELISA and HTRF assays (sites not given))
# T3 construct: also called full-length mouse ANGPTL3
# T3 sequence: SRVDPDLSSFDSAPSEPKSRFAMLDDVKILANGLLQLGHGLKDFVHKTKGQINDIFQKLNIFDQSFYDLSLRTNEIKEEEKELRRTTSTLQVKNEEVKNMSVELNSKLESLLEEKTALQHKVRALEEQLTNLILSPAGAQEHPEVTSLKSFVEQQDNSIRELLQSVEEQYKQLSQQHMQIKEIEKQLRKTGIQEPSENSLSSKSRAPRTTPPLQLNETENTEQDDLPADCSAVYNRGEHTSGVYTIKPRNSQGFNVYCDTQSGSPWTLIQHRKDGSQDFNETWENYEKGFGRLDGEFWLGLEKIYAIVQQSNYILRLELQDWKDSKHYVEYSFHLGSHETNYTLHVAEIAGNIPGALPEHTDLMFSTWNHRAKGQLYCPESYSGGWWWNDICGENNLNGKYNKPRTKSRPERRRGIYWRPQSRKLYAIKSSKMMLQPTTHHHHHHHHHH
# T4: cynomolgus monkey ANGPTL3(17-460)-His (cynomolgus monkey, UniProt Q9Y5C1 17-460 (human entry), biotin-labelled in the ELISA and HTRF assays (sites not given))
# T4 construct: also called full-length cynomolgus monkey ANGPTL3; Cyno ANGPTL3
# T4 chain: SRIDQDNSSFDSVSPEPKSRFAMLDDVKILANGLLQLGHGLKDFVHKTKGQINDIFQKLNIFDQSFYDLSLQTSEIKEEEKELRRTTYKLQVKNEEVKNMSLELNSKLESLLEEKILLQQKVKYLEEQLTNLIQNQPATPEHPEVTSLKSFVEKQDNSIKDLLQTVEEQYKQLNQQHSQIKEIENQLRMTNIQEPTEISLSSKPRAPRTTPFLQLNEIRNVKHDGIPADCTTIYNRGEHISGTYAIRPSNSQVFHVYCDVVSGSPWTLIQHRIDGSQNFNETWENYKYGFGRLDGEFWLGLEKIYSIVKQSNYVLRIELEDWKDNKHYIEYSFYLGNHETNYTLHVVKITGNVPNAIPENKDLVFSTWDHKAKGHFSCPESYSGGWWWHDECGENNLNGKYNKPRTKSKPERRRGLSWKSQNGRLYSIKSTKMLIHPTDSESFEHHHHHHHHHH
# B1: P3G (antibody, human IgG4 S228P, kappa, V domains shown)
# VH: QVQLVQSGAEVKKPGASVKVSCKSSGYTFTDYYLHWLRQAPGQGPEWMGWISPNSGGTSYAQKFQGRVTMTRDTSISTAYMELSSLRSDDTAVYYCARDIATLGNFFTYGMDVWGQGTTVTVSS
# VL: DIQLTQSPSSLSASVGDRVTITCRASQGIRNDLGWYQQKPGKAPKLLIYAASSLQSGVPSRFSGSGSGTDFTLTISSLQPEDFATYYCQQSYSSWTFGQGTKVEIKR
# notes: also called anti-ANGPTL3 antibody P3G; P3 (variable regions)
# B2: P8G (antibody, human IgG4 S228P, kappa, V domains shown)
# VH: QVQLVQSGAEVKKPGASVKVSCKASGYTFTSYDINWVRQAPGQGLEWVGLINPRDDSTSYAQKFQGRVTMTRDTSTSTMYMELSSLRSEDTAVYFCARDLGSIREVLYYGMDVWGQGTTVTVSS
# VL: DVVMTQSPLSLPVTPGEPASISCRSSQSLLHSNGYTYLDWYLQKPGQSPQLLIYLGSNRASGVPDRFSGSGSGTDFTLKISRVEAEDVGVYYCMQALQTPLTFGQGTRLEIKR
# notes: also called anti-ANGPTL3 antibody P8G; P8 (variable regions)
# Columns and labels:
# Assay in all cases: HTRF; biotin-labelled antigen with Streptavidin-Tb cryptate
# rat ANGPTL3(17-455)-His = target: T1, rat ANGPTL3(17-455)-His
# [1] = target: T2, human-ANGPTL3(17-460)-His
# [2] = target: T3, mouse ANGPTL3(17-455)-His
# [3] = target: T4, cynomolgus monkey ANGPTL3(17-460)-His
Binder,EC50 (rat ANGPTL3(17-455)-His) [nM],EC50 [1] [nM],EC50 [2] [nM],EC50 [3] [nM]
B1,0.597,0.929,0.638,0.502
B2,0.484,0.784,0.45,0.303
